Here are results for 78 substances from US20260001914A1, “MACROCYCLIC PEPTIDES TARGETING KRAS” (Merck Sharp & Dohme LLC, priority 2022, published 2026).

“And” between values parts separate entries of the source, which are not always exact repeats. Identical values can stand only once.

The target of this experiment is Biotin-labeled KRAS-G12D protein (UniProt P01116-2 1-169, limits assumed, biotin label (site not stated); loaded with BODIPY-GDP). As to the kind of experiment: cell-based or functional assay.
On to “cyclo(TyrOMe-Orn~3Pal-cBuA-Phe2F-Nle-NMe3Pal-daMeC1-C1Ac) (peptide)”, for which the SOS assay EC50 was 2130 nM.
Substance “cyclo(Phe4F-R-4Pal-L-TyrOMe-Nva-NMeF-Cysteamine-C1Ac) (peptide)” came in with an SOS assay EC50 of 3010 nM.
With “cyclo(F-NMeR-3Pal-Nle-TyrOMe-Nle-NMeF-c3amCblc) (peptide)” the figure was 96.2 nM; with “cyclo(F-R-Phe4Gnc2-Nle-TyrOMe-Nle-NMeF-c3amCblc) (peptide)”, 15.6 nM.
With “cyclo(Phe4F-R-4Pal-L-TyrOMe-Nva-NMeF-dC1-C1Ac) (peptide)” the figure was 1170 nM; with “cyclo(F-R-d3Pal-cBuA-Phe2F-Nle-NMe3Pal-amBYA) (peptide)”, 387 nM.
Next, “cyclo(Phe4F-R-4Pal-L-TyrOMe-Nva-NMeF-dC5-C1Ac) (peptide)”: 70.2 nM.
The substance “cyclo(F-R-3Pal-Nle-all-Nle-NMe3Pal-aMeC1-C1Ac (peptide)” displayed an SOS assay EC50 of 946 nM.
As to “cyclo(F-R-3Pal-Nle-TyrOMe-Nle-NMeF-13amCb1c) (peptide)”, the SOS assay EC50 turned out to be 186 nM.
In turn, “cyclo(1Nal-R-Phe4CH2NHAc-Nle-Y-Nle-NMeF-daMeC-C1Ac) (peptide)” displayed an SOS assay EC50 of 7030 nM.
Next, “cyclo(F-OmN3-3Pal-Nle-Phe2F-Nle-NMe3Pal-c3amCblc) (peptide)”: 5590 nM; “cyclo(Phe4F-R-LysN3-Nle-Y-Nle-NMeF-Cysteamine-C1Ac) (peptide)”: 3530 nM.
Next, “cyclo(F-R-hK-Nle-Bip-hY-NMeF-Cysteamine-C1Ac) (peptide)”: 4490 nM; “cyclo(F-NMeNvalmid-3Pal-Nle-Phe2F-LysN3-NMe3Pal-c3amCblc) (peptide)”: 612 nM.
With “cyclo(F-6Quin4NH2-Phe4Gn-L-TyrOMe-Nle-NMeF-C1-C1Ac) (peptide)” the figure was 7790 nM.
In turn, “cyclo(F-R-d3Pal-cBuA-Phe2F-Nle-NMe3Pal-amBCP) (peptide)” displayed an SOS assay EC50 of 3.19 nM.
Next, “cyclo(Phe4NH2-Om-3Pal-cBuA-TyrOMe-Nle-NMe3Pal-daMeC1-C1Ac) (peptide)”: 1060 nM.
With “cyclo(FLac-NMeA-PyrimAla-cPrA-4Pal2F-hL-NMeF-amBCP) (peptide)” the figure was 2.69 nM.
Next, “cyclo(F-ArgMeMe-Phe4Gn-L-TyrOMe-Nle-NMeF-dC1-C1Ac) (peptide)”: 1160 nM.
“cyclo(F-NO2IMNva-d3Pal-cBuA-Phe2F-Nle-NMe3Pal-amBCP) (peptide)” returned an SOS assay EC50 of 242 nM.
With “cyclo(F-R-3Pal-cBuA-Pra-Nle-NMeF-aMeC1-C1Ac) (peptide)” the figure was 298 nM; with “cyclo(Phe34F2-R-4Pal-L-TyrOMe-Nva-NMeF-dC1-C1Ac) (peptide)”, 2770 nM; with “cyclo(F-R~3Pal-cBuA-Phe26F2-Nle-NMe3Pal-aMeC1-C1Ac) (peptide)”, 4.6 nM.
Next, “cyclo(F-R-3Pal-Nle-TyrOMe-Nle-NMeF-bhcLeu) (peptide)”: 193 nM; “cyclo(NMeF-NMeNvalmid-3Pal-Nle-Phe2F-Nle-NMe3Pal-c3amCblc) (peptide)”: 1220 nM.
Next, “cyclo(INal-R-4Pal-L-TyrOMe-Nva-NMeF-dC1-C1Ac) (peptide)”: 935 nM; “cyclo(F-NMeR-d3Pal-NMeNle-Phe2F-Nle-NMe3Pal-amBCP) (peptide)”: 1200 nM.
In turn, “cyclo(NMeF-NMeNvaImid-Phe4cPyrr-Nle-Phe2F-Nle-NMe3Pal-amBCP) (peptide)” had an SOS assay EC50 of 3220 nM.
“cyclo(F-R-3Pal-Nle-I-Nle-NMe3Pal-aMeC1-C1Ac) (peptide)” showed an SOS assay EC50 of 642 nM.
Next, “cyclo(Phe4F-R-4Pal-hIle-TyrOMe-Nva-NMeF-dC-C1Ac) (peptide)”: 2060 nM.
Next, “cyclo(F-NH2IMNva-d3Pal-cBuA-Phe2F-Nle-NMe3Pal-amBCP) (peptide)”: 1.14 nM; “cyclo(F-NMeDabN3-3Pal-Nle-Phe2F-Nle-NMe3Pal-c3amCb1c) (peptide)”: 753 nM; “cyclo(NMeF-NMeNvalmid-3Pal-Nle-Phe2F-LysN3-NMe3Pal-c3amCb1c) (peptide)”: 7760 nM.
With “cyclo(F-R-3Pal-Nle-PraMe-Nle-NMe3Pal-aMeC1-C1Ac) (peptide)” the figure was 3070 nM; with “cyclo(F-R-3Pal-Nle-TyrOMe-Nle-NMeF-cBuTE-C1Ac) (peptide)”, 3440 nM; with “cyclo(F-R-Phe4Gn-Nle-TyrOMe-Nle-NMeF-cBuAc) (peptide)”, 419 nM.
As to “cyclo(F-R-3Pal-Nle-deHLeu-Nle-NMe3Pal-aMeC1-C1Ac) (peptide)”, the SOS assay EC50 was 526 nM.
With “cyclo(F-R-3Pal-cBuA-SerOMe-Nle-NMeF-aMeC1-C1Ac) (peptide)” the figure was 943 nM; with “cyclo(F-R-4F3Pal-cBuA-Phe2F-Nle-NMe3Pal-daMeC1-C1Ac) (peptide)”, 1.26 nM; with “cyclo(NMeF-NMeNvaImid-3Pal-Nle-Phe2F-Nle-NMe3Pal-tamcPr) (peptide)”, 7650 nM.
Next, “cyclo(F-R-d3Pal-cBuA-TyrOMe-Nle-NMeF-Smcysteamine-C1Ac) (peptide)”: 37.8 nM; “cyclo(F-R-3Pal-Nle-Phe2F-Nle-NMe3Pal-aMeC-C1Ac) (peptide)”: 370 nM.
With “cyclo(F-R-3Pal-cBuA-Phe24F2-Nle-NMe3Pal-aMeC1-C1Ac) (peptide)” the figure was 1.35 nM; with “cyclo(F-NMeDabN3-3Pal-Nle-Phe2F-Nle-NMe3Pal-amBCP) (peptide)”, 267 nM; with “cyclo(F-R-3Pal-cBuA-Phe2F-Nle-NMeF-aMeC1-C1Ac) (peptide)”, 2 nM.
With “cyclo(Phe4F-R-4Pal-Nle-TyrOMe-Nle-NMeF-Cysteamine-C1Ac) (peptide)”, the SOS assay EC50 was determined as 432 nM.
Next, “cyclo(F-MorNva-3Pal-cBuA-Phe2F-Nle-NMe3Pal-amBCP) (peptide)”: 432 nM; “cyclo(F-R-3Pal-Nle-TyrOMe-Nle-NMeF-cHxclacid4NH2) (peptide)”: 256 nM.
With “cyclo(F-R-d3Pal-cBuA-Phe2F-Nle-NMe3Pal-BCP) (peptide)” the figure was 1140 nM; with “cyclo(F-R-3Pal-cBuA-TyrOMe-AheNMeAhe-aMeC-C1Ac) (peptide)”, 900 nM.
With “cyclo(F-R-3Pal-cBuA-AbuF3-Nle-NMeF-aMeC1-C1Ac) (peptide)” the figure was 861 nM; with “cyclo(F-R-3Pal-cBuA-TyrOMe-Nle-NMeF-amBCP) (peptide)”, 5.47 nM.
In the case of “cyclo(F-R-3Pal-cBuA-TyrOMe-RdHagNMeHag-aMeC-C1Ac) (peptide)”, the SOS assay EC50 was 299 nM.
With “cyclo(NMeF-NMeDabN3-3Pal-Nle-Phe2F-Nle-NMe3Pal-c3amCblc) (peptide)” the figure was 8470 nM.
With “cyclo(F-R-PyrimAla-cBuA-Phe2F-Nle-NMe3Pal-aMeC1-C1Ac) (peptide)” the figure was 0.998 nM; with “cyclo(F-R-d3Pal-cBuA-Phe2F-Nle-NMe3Pal-amOBCH) (peptide)”, 6820 nM; with “cyclo(F-IPG-d3Pal-cBuA-Phe2F-Nle-NMe3Pal-amBCP) (peptide)”, 1230 nM.
With “cyclo(Y-Orn-3Pal-cBuA-TyrOMe-Nle-NMe3Pal-daMeC1-C1Ac) (peptide)” the figure was 659 nM.
“cyclo(C1Ac-F-R-3Pal-cBuA-Ape-Nle-NMe3Pal-C) (peptide)” came in with an SOS assay EC50 of 7270 nM.
Next, “cyclo(Phe3F-R-4Pal-L-TyrOMe-Nva-NMeF-dC1-C1Ac) (peptide)”: 3750 nM; “cyclo(FLac-NMeA~PyrimAla-cPrA-3Pal6F-hL-NMeF-amBCP) (peptide)”: 3.72 nM.
With “cyclo(F-baceNva-d3Pal-cBuA-Phe2F-Nle-NMe3Pal-amBCP) (peptide)” the figure was 7.56 nM; with “cyclo(F-R-4CF33Pal-cBuA-Phe2F-Nle-NMe3Pal-aMeC1-C1Ac) (peptide)”, 1.59 nM.
The substance “cyclo(F-R-Phe4cMph-Nle-TyrOMe-Nle-NMeF-c3amCblc) (peptide)” came in with an SOS assay EC50 of 60.6 nM.
Next, “cyclo(F-R-3Pal-Nle-SerOMe-Nle-NMe3Pal-aMeC1-C1Ac) (peptide)”: 6390 nM.
With “cyclo(1Nal-R~Phe4Gn-Nle-Y-Nle-NMeF-daMeC-C1Ac) (peptide)” the figure was 575 nM.
With “cyclo(F-R-3Pal-cBuA-TyrOMe-AheNMeHag-aMeC-C1Ac) peak 1 (peptide)” the figure was 1560 nM and 324 nM; with “cyclo(F-R-3Pal-cBuA-TyrOMe-Nle-NMeF-spiro44) (peptide)”, 7340 nM.
In turn, “cyclo(C1Ac-F-R-3Pal-cBuA-Hag-Nle-NMe3Pal-C) (peptide)” returned an SOS assay EC50 of 9150 nM.
Next, “cyclo(NMeF-NMeNvalmid-3Pal-dNle-Phe2F-Nle-NMe3Pal-c3amCblc) (peptide)”: 1460 nM.
Next, “cyclo(F-Nva-Phe4Gn-L-TyrOMe-Nle-NMeF-dC1-C1Ac) (peptide)”: 4320 nM.
With “cyclo(F-R-hS-cBuA-Phe2F-Nle-NMeF-aMeC1-C1Ac) (peptide)”, the SOS assay EC50 amounted to 503 nM.
“cyclo(F-R-3Pal-cBuA-TyrOMe-124triazole-dC~C1Ac) (peptide)” yielded an SOS assay EC50 of 2820 nM.
Next, “cyclo(F-R-Phe4cPyrr-Nle-TyrOMe-Nle-NMeF-c3amCblc) (peptide)”: 35.3 nM; “cyclo(F-R-Phe4Gn-Nle-TyrOMe-Nle-NMeF-SamHex) (peptide)”: 142 nM.
With “cyclo(F-NMeNvalmid-3Pal-Nle-Phe2F-Nle-NMe3Pal-tamcPr) (peptide)” the figure was 272 nM; with “cyclo(F-R-Phe4Gn-Nle-TyrOMe-Nle-NMeF-acBu) (peptide)”, 13.8 nM.
The substance “cyclo(F-DabN3-3Pal-Nle-Phe2F-Nle-NMe3Pal-c3amCb1c) (peptide)” came in with an SOS assay EC50 of 830 nM.
